Test [1] concerns the target T1, human PD1 expressed on transfected Jurkat cells (human, UniProt Q15116 25-288). Nature of the test: cell-based or functional assay.
The target in test [2] is T1, human PD1 expressed on transfected …. Nature of the test: PD1 WCB: whole cell binding, flow cytometry, h-PD1 Jurkat cells; mean. The protocol: The binding affinities of the BsAbs to human PD1 were also determined by whole cell binding assays using human PD1 transfected Jurkat cells. Antibodies were incubated with h-PD1 transfected Jurkat cells, and binding was determined using a secondary anti-h-IgG antibody conjugated with AlexaFluor488, which was detected by flow cytometry.

In test [3] the target is T2, his-tagged recombinant human TIGIT ECD (human, UniProt Q495A1 22-138).
T2 construct: also called h-TIGIT ECD (his-tagged); not shown: his tag
T2 sequence: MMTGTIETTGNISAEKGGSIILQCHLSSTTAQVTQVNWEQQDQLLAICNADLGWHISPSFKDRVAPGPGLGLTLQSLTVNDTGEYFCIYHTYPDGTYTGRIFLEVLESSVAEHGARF
Kind of test: Octet, antibody loaded on the sensor, his-tagged h-PD1 ECD injected first, his-tagged h-TIGIT ECD second.

In test [4] the target is T1, human PD1 expressed on transfected …. Kind of test: flow cytometry (whole cell binding) on h-PD1 transfected Jurkat cells; table under the graph, Average (n=4), SD 0.18.
Test [5] has as its target T3, recombinant mouse TIGIT (mouse, UniProt P86176 29-148, limits assumed).
T3 sequence (looked up): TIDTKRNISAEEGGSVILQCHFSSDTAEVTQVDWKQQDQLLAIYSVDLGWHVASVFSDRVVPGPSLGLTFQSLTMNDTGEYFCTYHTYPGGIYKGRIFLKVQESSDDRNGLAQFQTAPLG
Nature of the test: ELISA, recombinant mouse-TIGIT.

For test [6], the target named is T4, human TIGIT expressed on cells (stably transfected Jurkat cells) (human, UniProt Q495A1 22-244).
T4 sequence: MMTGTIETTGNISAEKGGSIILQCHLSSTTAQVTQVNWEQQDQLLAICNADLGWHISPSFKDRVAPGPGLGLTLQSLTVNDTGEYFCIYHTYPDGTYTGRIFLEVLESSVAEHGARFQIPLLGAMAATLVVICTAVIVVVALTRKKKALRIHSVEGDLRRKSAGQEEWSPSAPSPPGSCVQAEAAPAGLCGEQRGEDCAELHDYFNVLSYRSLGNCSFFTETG
Nature of the test: cell-based or functional assay.

The target in test [7] is T5, recombinant cynomolgus TIGIT (cynomolgus monkey).
T5 construct: also called cyno-TIGIT; cyno-TIGIT ECD
Kind of test: ELISA on recombinant cyno-TIGIT. How it is done: (§1) FIGS. 8A-8C depict cross-binding activity of 2A3-Fc to human-, cyno- and mouse-TIGIT determined by ELISA assays. […] Reference Ab 2 is an anti-h-TIGIT reference antibody. Both 2A3-Fc and Reference Ab 2 bind to h-TIGIT with similar affinity. […] Both 2A3-Fc and Reference Ab 2 bind to cyno-TIGIT with similar affinity. […] Y axis represents OD450, X axis represents antibody concentrations in μg/ml.
(§2) Cross-species binding activity of 2A3-Fc to human, cynomolgus and mouse TIGIT was determined by ELISA assays, results of which are shown in FIGS. 8A-8C. 2A3-Fc bound to human, cynomolgus monkey but not mouse TIGIT.

For test [8], the target named is T6, recombinant human TIGIT extracellular domain (ECD) (human, UniProt Q495A1 22-138).
T6 construct: also called h-TIGIT ECD; recombinant human TIGIT ECD
T6 sequence: T2 sequence
Kind of test: ELISA on recombinant human TIGIT ECD. The protocol: as §1, §2

For test [9], the target named is T4, human TIGIT expressed on cells (stably …). Kind of test: flow cytometry on h-TIGIT transfected Jurkat cells (whole cell binding), Alexa Fluor 488 [upper panel].
For test [10] the target is unchanged. Nature of the test: cell-based or functional assay. This is another data set of the same source.
Test [11] has the same target. Nature of the test: TIGIT WCB: whole cell binding, flow cytometry, h-TIGIT Jurkat cells; mean. How it is done: Affinity to TIGIT was further examined in whole cell binding assay using human TIGIT transfected Jurkat cells. Antibodies were incubated with h-TIGIT transfected Jurkat cells, and binding of antibodies to h-TIGIT was determined using a secondary anti-human-IgG Fc antibody conjugated with AlexaFluor488, which was detected by flow cytometry.

Test [12] shares this target. Kind of test: flow cytometry (whole cell binding) on h-TIGIT transfected Jurkat cells; table under the graph, Average (n=3), SD 0.35.

T1 sequence (Q15116 25-288): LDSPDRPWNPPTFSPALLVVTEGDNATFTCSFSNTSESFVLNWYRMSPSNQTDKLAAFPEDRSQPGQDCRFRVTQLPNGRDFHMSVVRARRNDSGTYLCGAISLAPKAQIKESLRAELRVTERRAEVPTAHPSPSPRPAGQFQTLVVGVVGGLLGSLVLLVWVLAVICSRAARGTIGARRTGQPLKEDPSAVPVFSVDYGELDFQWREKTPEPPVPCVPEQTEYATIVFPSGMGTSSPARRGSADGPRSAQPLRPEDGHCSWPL

B1: parental anti-PD1 monoclonal antibody (antibody, human IgG4 S228P, kappa, V domains shown)
VH: QVQLVESGGGLVKPGGSLRLSCAASGFTFSNYGMSWIRQAPGKGLEWVSTISGGGSNIYYADSVKGRFTISRDNAKNSLYLQMNSLRAEDTAVYYCVSYYYGIDFWGQGTSVTVSS
VL: DIQMTQSPSSLSASVGDRVTITCKASQDVTTAVAWYQQKPGKAPKLLIYWASTRHTGVPSRFSGSGSGTDFTLTISSLQPEDFATYYCQQHYTIPWTFGGGTKLEIKR
notes: Antibody from WO 2018/052818 A1; also called aPD1; parental mAb anti-PD1
Turning to B1, the “EC50 (Mean, nM), PD1 Blockade Assay” value in [1] was 0.73 nM. Besides, the values for the EC50 in test [2] and in [4] were 600 pM and 360 pM, respectively. The binding result in [3] is reported as “no binding (tested: concentrations not printed)”.

B2: 2A3-Fc (bivalent 2A3 antibody) (Fc fusion)
chain: QVQLVESGGGVVQPGRSLRLSCAASGGSFSSYPMGWFRQAPGKERESVAAISSDMRFTYYADSVKGRFTISRDNSKNTLYLQMNSLRAEDTAVYYCAARDSGVGYYSRAQWYDYWGQGTLVTVSS
notes: also called parental 2A3-Fc; 2A3 clone; not shown: human IgG1 CH2 and CH3 domains
Turning to B2, the binding result in test [5] was “no binding”. The “EC50 (read off the curve) of the NFAT luciferase reporter activity, TIGIT blockade assay [lower panel]” value in [6] was approximately 1000 pM. In addition, the “EC50 (read off the curve)” value is approximately 0.1 µg/mL in test [7], approximately 0.1 µg/mL in [8] and approximately 500 pM in [9].

B3: anti-TIGIT x anti-PD1 bispecific antibody, LCN version (bispecific antibody, human IgG4 S228P, kappa)
heavy: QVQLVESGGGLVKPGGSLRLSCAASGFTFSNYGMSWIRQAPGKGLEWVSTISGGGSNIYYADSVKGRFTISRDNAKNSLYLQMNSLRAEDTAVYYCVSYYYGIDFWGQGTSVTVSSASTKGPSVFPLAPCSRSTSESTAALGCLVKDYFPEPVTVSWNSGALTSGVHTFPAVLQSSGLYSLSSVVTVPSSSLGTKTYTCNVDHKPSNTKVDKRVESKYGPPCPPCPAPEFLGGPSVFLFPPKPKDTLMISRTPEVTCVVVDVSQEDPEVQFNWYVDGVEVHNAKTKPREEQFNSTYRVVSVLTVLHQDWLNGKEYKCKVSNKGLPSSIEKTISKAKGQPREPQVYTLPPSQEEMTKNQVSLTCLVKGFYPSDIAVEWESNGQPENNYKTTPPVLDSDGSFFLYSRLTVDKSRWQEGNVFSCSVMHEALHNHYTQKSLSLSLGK
light: QVQLVESGGGVVQPGRSLRLSCAASGGSFSSYPMGWFRQAPGKERESVAAISSDLRFTYYADSVKGRFTISRDNSKNTLYLQMNSLRAEDTAVYYCAARTSGVGYYSRAQWYDYWGQGTLVTVSSGSGGSGGSGGSGDIQMTQSPSSLSASVGDRVTITCKASQDVTTAVAWYQQKPGKAPKLLIYWASTRHTGVPSRFSGSGSGTDFTLTISSLQPEDFATYYCQQHYTIPWTFGGGTKLEIKRTVAAPSVFIFPPSDEQLKSGTASVVCLLNNFYPREAKVQWKVDNALQSGNSQESVTEQDSKDSTYSLSSTLTLSKADYEKHKVYACEVTHQGLSSPVTKSFNRGEC
notes: VHH 2A3 fused to the N-terminus of the anti-PD1 light chain; also called aTIGITxaPD1-LCN
Consider B3, for which, in test [10], the “EC50 (Mean, nM), PD1 + TIGIT Combination Blockade Assay (double blockade)” value worked out at 1.23 nM and the “EC50 (Mean, nM), TIGIT Blockade Assay” value came to 8.7 nM. The molecule further showed an EC50 in test [11] of 750 pM. In addition, the EC50 in test [12] turned out to be 610 pM.

The record behind these values is patent US20230060388A1 (SHANGHAI HENLIUS BIOTECH, published 2023).
